Data: article PMC10160029, “Engineered repeat proteins as scaffolds to assemble multi-enzyme systems for efficient cell-free biosynthesis” (Nature Communications, 2023)

Tests used:
[1] = target: FDH1: formate dehydrogenase from Candida boidinii with peptide-1 (MEEVV) fused to its C-terminus (Candida boidinii); experiment: SEC; each tagged enzyme alone; molecular weight estimated from the elution
TRAP1-3 = target: T1, TRAP1-3; experiment: fluorescence anisotropy of NADH; assay type: binding; settings: PBS (150 mM NaCl, 50 mM phosphate) pH 7.4, 25 °C, 1 µM NADH titrated with 0-100 µM TRAP1-3; one-site fit
T1 construct: designed fusion of TRAP1 and TRAP3 TPR modules, synthetic gene in pET-28b(+), E. coli C41, Ni-NTA; His-tag kept in assembly; mass 32,621 (kDa [sic])

purified protein [2] = substrate: CC(=O)C(=O)O; experiment: purified protein; assay type: biochemical, Geobacillus stearothermophilus; settings: saturating NADH, 500 mM ammonium chloride, 25 mM potassium phosphate pH 8.0, 30 °C, AlaDH3 bound alone to TRAP1-3, apparent, substrate inhibition fit
purified protein [3] = substrate: NC(=O)C1=CN([C@@H]2O[C@H](COP(=O)(O)OP(=O)(O)OC[C@H]3O[C@@H](n4cnc5c(N)ncnc54)[C@H](O)[C@@H]3O)[C@@H](O)[C@H]2O)C=CC1; experiment: purified protein; assay type: biochemical, Geobacillus stearothermophilus; settings: saturating pyruvate, 500 mM ammonium chloride, 25 mM potassium phosphate pH 8.0, 30 °C, AlaDH3 bound alone to TRAP1-3, apparent
[4] = target: the molecule itself; experiment: SEC; each tagged enzyme alone; molecular weight estimated from the elution
purified protein [5] = substrate: NC(=O)c1ccc[n+]([C@@H]2O[C@H](COP(=O)(O)OP(=O)(O)OC[C@H]3O[C@@H](n4cnc5c(N)ncnc54)[C@H](O)[C@@H]3O)[C@@H](O)[C@H]2O)c1; experiment: purified protein; assay type: biochemical, [Candida] boidinii; settings: saturating formate, 25 mM sodium phosphate pH 7.0, 30 °C, FDH1 bound alone to TRAP1-3, apparent
purified protein [6] = substrate: O=CO; experiment: purified protein; assay type: biochemical, [Candida] boidinii; settings: saturating NAD+, 25 mM sodium phosphate pH 7.0, 30 °C, FDH1 bound alone to TRAP1-3, apparent

Question: “FDH1: formate dehydrogenase from Candida boidinii with peptide-1 (MEEVV) fused to its C-terminus (enzyme)” was tested. Which stoichiometry N [1] did it give?
Answer: Its stoichiometry N is 2.

Question: How did the Kd (TRAP1-3) turn out when `NC(=O)C1=CN([C@@H]2O[C@H](COP(=O)(O)OP(=O)(O)OC[C@H]3O[C@@H](n4cnc5c(N)ncnc54)[C@H](O)[C@@H]3O)[C@@H](O)[C@H]2O)C=CC1` [NADH] was run?
Answer: The Kd was 34.9 µM.

B1: AlaDH3@TRAP (Geobacillus stearothermophilus) (protein)
chain: MKIGIPKEIKNNENRVAITPAGVMTLVKAGHEVYVETEGGAGSGFSDSEYEKAGAADRCRTWRDAWTAEMVLKVKEPLAREFRYFRPGLILFTYLHLAAAERVTKAVVEQKVVGIAYETVQLANGSLPLLTPMSEVAGRMSVQVGAQFLEKPHGGKGILLGGVPGVRRGKVTIIGGGTAGTNAAKIGVGLGADVTILDINAERLRELDDLFGDHVTTLMSNSYHIAECVRESDLVVGAVLIPGAKAKLVTEEMVRSMTPGSVLVDIAIDQGGIFETTDRVTTHDDPTYVKHGVVHYAVANMPGAVPRTSTFALTNVTIPYALQIANKGYRAGCLDNPALLKGINTLDGHIVYEAVAAAHNMPYTDVHSLLHG
notes: AlaDH with C-terminal peptide-3 tag MRRVW, pET-28b(+), E. coli C41, Ni-NTA, His-tag removed by TEV; mass 44,323 (kDa [sic]); hexamer
Question: For B1, which Km (purified protein [2]) is on record?
Answer: The Km was 390 ± 50 µM.

Question: What about the Vmax (purified protein [2]) of the same molecule?
Answer: Its Vmax is 41.3 µmol/min/mg.

Question: What about the kcat (purified protein [2]) of the same molecule?
Answer: Its kcat is 30.6 ± 1.9 s⁻¹.

Question: What about the kcat/Km (purified protein [2]) of the same molecule?
Answer: Its kcat/Km is 79000 M⁻¹ s⁻¹.

Question: What about the Km (purified protein [3]) of the same molecule?
Answer: Its Km is 360 ± 70 µM.

Question: What about the Vmax (purified protein [3]) of the same molecule?
Answer: Its Vmax is 94.3 µmol/min/mg.

Question: And the kcat (purified protein [3])?
Answer: Its kcat is 69.9 ± 4.7 s⁻¹.

Question: And the kcat/Km (purified protein [3])?
Answer: Its kcat/Km is 190000 M⁻¹ s⁻¹.

B2: AlaDH3: alanine dehydrogenase from Bacillus stearothermophilus with peptide-3 (MRRVW) fused to its C-terminus (enzyme)
chain: MKIGIPKEIKNNENRVAITPAGVMTLVKAGHDVYVETEAGAGSGFSDSEYEKAGAVIVPNAEDAWTAEMVLKVKEPLAEEFRYFRPGLILFTYLHLAAAEALTKALVEQKVVGIAYETVQLANGSLPLLTPMSEVAGRMSVQVGAQFLEKPHGGKGILLGGVPGVRRGKVTIIGGGTAGTNAAKIAVGLGSDVTILDINAERLRELDDLFGDHVTTLMSNSYHIAECVRESDLVVGAVLIPGAKAPKLVTEEMVRSMTPGSVLVDIAIDQGGIFETTDRVTTHDDPTYVKHGVVHYAVANMPGAVPRTSTFALTNVTIPYALQIANKGYRAACLDNPALLKGINTLDGHIVYEAVAAAHNMPYTDVHSLLHGMRRVW
Question: How did the “stoichiometry N” value [4] turn out when B2 was run?
Answer: The value was 6.

B3: FDH1@TRAP ([Candida] boidinii) (protein)
chain: MKIVLVLYDAGKHAADEEKLYGCTENKLGIANWLKDQGHELITTSDKEGGNSVLDQHIPDADIIITTPFHPAYITKERIDKAKKLKLVVVAGVGSDHIDLDYINQTGKKISVLEVTGSNVVSVAEHVLMTMLVLVRNFVPAHEQIINHDWEVAAIAKDAYDIEGKTIATIGAGRIGYRVLERLVPFNPKELLYYDYQALPKDAEEKVGARRVENIEELVAQADIVTINAPLHAGTKGLINKELLSKFKKGAWLVNTARGAICVAEDVAAALESGQLRGYGGDVWFPQPAPKDHPWRDMRNKYGAGNAMTPHYSGTTLDAQTRYAEGTKNILESFFTGKFDYRPQDIILLNGEYITKAYGKHDKK
notes: FDH with C-terminal peptide-1 tag MEEVV, pET-28b(+), E. coli C41, Ni-NTA, His-tag removed by TEV; mass 45,137 (kDa [sic]); dimer; 5DNA as structure used for illustration
Question: Which Km (purified protein [5]) does the source give for B3 here?
Answer: The Km was 270 ± 100 µM.

Question: What about the Vmax (purified protein [5]) of the same molecule?
Answer: The Vmax was 1.23 µmol/min/mg.

Question: What about the kcat (purified protein [5]) of the same molecule?
Answer: Its kcat is 0.9 ± 0.3 s⁻¹.

Question: What about the kcat/Km (purified protein [5]) of the same molecule?
Answer: Its kcat/Km is 3500 M⁻¹ s⁻¹.

Question: And the Km (purified protein [6])?
Answer: Its Km is 2420 ± 1070 µM.

Question: And the Vmax (purified protein [6])?
Answer: Its Vmax is 0.95 µmol/min/mg.

Question: What about the kcat (purified protein [6]) of the same molecule?
Answer: Its kcat is 0.7 ± 0.2 s⁻¹.

Question: What about the kcat/Km (purified protein [6]) of the same molecule?
Answer: The kcat/Km was 290 M⁻¹ s⁻¹.
